Experimental data: the supplement of paper PMC9170038

System: MS2 coat protein
Test: apparent KD of MS2 coat protein; designed switch direction (-1 OFF switch, 1 ON switch): -1; higher = weaker reporter binding
How it was run: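 Normalised cluster fluorescence was curve-fitted, and each design's median over clusters is its apparent KD. Before this, SNAP-549-labelled MS2 coat protein was titrated from 0.7 or 1.5 nM, doubling to 3 µM, over RNA switches transcribed on Illumina chips by stalled E. coli RNA polymerase. Titrations had no input, 200 uM small-molecule ligand, or an oligonucleotide input, and steps lasted 0.8–1.5 h (lowest) to 10–20 min (highest).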

[1] = input ligand: microRNA oligo, concentration not stated
[2] = Eterna round: R95, input ligand: FMN 200 uM
[3] = Eterna round: R95, input ligand: microRNA oligo, concentration not stated
[4] = Eterna round: R95, input ligand: none

Sequence | apparent KD of MS2 coat protein (input ligand: FMN 200 uM) [nM] | apparent KD of MS2 coat protein (input ligand: none) [nM] | apparent KD of MS2 coat protein [1] [nM] | apparent KD of MS2 coat protein [2] [nM] | apparent KD of MS2 coat protein [3] [nM] | apparent KD of MS2 coat protein [4] [nM]
GCGCUGUCAGGAUAUCGCGCGCGCGCGGAAAUGUGUGUGUGUGAGAAGGGACAUGAGGAUCACCCAUGUGGUGU [-28.5, -27.5 kcal, A 20%, 6-6bis] (Eterna round: R97, puzzle: Exclusion 4) | 213 | 583 |  |  |  | 
GCGCUGUCAGGAUAUGUGUGUGUGUGUGAAAGCGCGCGCGCGCAGAAGGGACAUGAGGAUCACCCAUGUGGUGU [-31.2, -30.2 kcal, A 20%, 6bis-6bis] (Eterna round: R97, puzzle: Exclusion 4) | 78.7 | 265 |  |  |  | 
GCGGACUAGAUCGUGAGAUCUGAGACAUGAGGAUCACCCAUGUAGGAUAUCGAUUCGAAACGAAUCGAGAAGGGCAUAGUCCGC [JL denovo 8] (Eterna round: R96, puzzle: Exclusion NG 3) | 23.1 | 22 | 16 |  |  | 
GCGGUAUUCCCUGGAGUACCAUACAUGAGGAUCACCCAUGUAUAGGAUAUUGCAGGAGACAGCUGCGAGAAGGGUACAGGGUGU [Dierceza] (Eterna round: R96, puzzle: Exclusion NG 3) | 26.6 | 15.9 | 14.4 |  |  | 
GCGUGAAGGCAGGAUAUAAGAAAAGAAAGAAAAUUAGAAGGGCCGACAUGAGGAUCACCCAUGUGGGCAUGAUC [Xeorusza] (Eterna round: R97, puzzle: Exclusion 6) | 33.8 | 15.9 |  |  |  | 
GCGUGUGCCUAGGAUAUUGGGAAUAUGCAGAAACGAGAAGGAGGCACAUGAGGAUCACCCAUGUGAUGAAAAGA [Teesedri] (puzzle: Exclusion 6) |  |  |  | 16.7 | 45.6 | 61.7
GCUAGAGCAGGAUAUCUAGAUCCACACAUGAGGAUCACCCAUGUACGGUCGAAAGACCGAAGAGAAGGGCUCUAGC [Omei Ex5 E12] (Eterna round: R97, puzzle: Exclusion 5) | 98.5 | 67 |  |  |  | 
GCUAGGAAUGUCAGGAUAUGCUGAUCCUUGGAUCAGCAGAAGGGACAUGAGGAUCACCCAUGUGCUAACCUAGC [Mat - Exclusion 4 - JL Mod - D6] (Eterna round: R97, puzzle: Brourd's mod of Exclusion 4) | 177 | 30.8 |  |  |  | 
GCUCUUGGGCAAGGAUAUCCUGCGCGGUUCCGGUUCGUGUCUGUCACAUGAGGAUCACCCAUGUGGGAGAAGGUGCCUGCGGUG [Design 74] (Eterna round: R96, puzzle: Exclusion NG 2) | 28.6 | 15.9 | 12.3 |  |  | 
GCUGGUCAAGGAUAUACAUGAGGAUCACCCAUGUGGUCACGUGACGAUAGUCACGAAUGUAGAAGGUGACCAGC [E3/3-C1] (Eterna round: R97, puzzle: Exclusion 3) | 51.1 | 260 |  |  |  | 
GCUGGUCGAGGAUAUACAUGAGGAUCACCCAUGUGGUCACGUGACGAUAGUCACGAAUGUAGAAGGCGACCAGC [E3/3-A1] (Eterna round: R97, puzzle: Exclusion 3) | 66.9 | 161 |  |  |  | 
GCUGGUCGAGGAUAUGCAUACACUGGAUACAGUGGAAGGUCACAUGAGGAUCACCCAUGUAGAAGGCGACCAGC [EX2 #35] (Eterna round: R97, puzzle: Exclusion 2) | 122 | 35.1 |  |  |  | 
GCUUCGUCUGUGGGUGGUGACAUGAGGAUCACCCAUGUUUUGCUCGUCUUGUGCCGGGCCCGGCGCCCGGGCCCGGC [-38.7, -63.8, A 8%] (Eterna round: R97, puzzle: Sensor, turn-off variant 1) | 721 | 955 |  |  |  | 
GCUUGACGAGGAUAUGCAUACACUGGAUACAGUGGAAGGUCACAUGAGGAUCACCCAUGUAGAAGGCGUCGAGC [EX2 #40] (Eterna round: R97, puzzle: Exclusion 2) | 123 | 35.4 |  |  |  | 
GCUUGUCGAGGAUAUGCAUACACUGGAUACAGUGGAAGGUCACAUGAGGAUCACCCAUGUAGAAGGCGACGAGC [EX2 #39] (Eterna round: R97, puzzle: Exclusion 2) | 121 | 41.8 |  |  |  | 
GCUUGUCUUUAGGAUAUCGUGAGGCCCUUCAUACGAGAAGGAAAGACAUGAGGAUCACCCAUGUCGGGUAUCAC [Eternabot (L1) Solution 28] (Eterna round: R97, puzzle: Exclusion 6) | 51.8 | 20.8 |  |  |  | 
GCUUGUGGGCAAGGAUAUCCUACGUUGUUCUGGUUCGUGUCUGUCACAUGAGGAUCACCCAUGUGGGAGAAGGUGCAUUUGGGU [Design 59] (Eterna round: R96, puzzle: Exclusion NG 2) | 17.9 | 18 | 13.8 |  |  | 
GGAAAGCAAGGAUAUACAAGGAAACGAUGGAAAGUAGAGAGACAUGAGGAUCACCCAUGUAGAAGGUGCGAGAG [JR_Exclu2_Sub037] (puzzle: Exclusion 2) |  |  |  | 36.9 | 24.9 | 25.3
GGAAAGUGAGGAUAUGGUAAUUUAAUUAUUAAUUAAUUAAUCCAGAAGGCACAUGAGGAUCACCCAUGUAAAGG [Mat - Exclusion 4 - D92] (puzzle: Exclusion 4) |  |  |  |  | 30.7 | 
GGAACUGGAGGAUAUACAUGAGGAUCACCCAUGUAUAGAUAUGGUUAUUAGCCUCAUAGUAGAAGGUUAGUGGC [EX3 C.4] (Eterna round: R97, puzzle: Exclusion 3) | 21.6 | 20.1 |  |  |  | 
GGACCGUAAGGAUAUGGCACGAAUCGACAGUCGAUCUCGAGCUAGAAGGUACAUGAGGAUCACCCAUGUCCGUU [Eternabot (L1) Solution 13] (Eterna round: R97, puzzle: Exclusion 4) | 25.4 | 19.2 |  |  |  | 
GGAGGGAAAGUGAGGAUAUCCGGAGGGAAACCUCCGGAGAAGGCACAUGAGGAUCACCCAUGUAAGGAAGGAGG [AK-MS2ROC-r4-Bmoexclusion4-1.1] (Eterna round: R97, puzzle: Brourd's mod of Exclusion 4) | 203 | 135 |  |  |  | 
GGAUAAGGCGAGGAUAUCCAGAAACCCGACAAAGGAGAAGGCGCAACAUGAGGAUCACCCAUGUGGGUGCAUGU [Xeaormara] (puzzle: Exclusion 6) |  |  |  | 1080 | 254 | 280
GGAUCGAAAGUGAGGAUAUACCUAUGGAUACAUAGGUAGAAGGCACAUGAGGAUCACCCAUGUUCCUACGGUCC [Eli bmx4 4.10] (Eterna round: R97, puzzle: Brourd's mod of Exclusion 4) | 114 | 18.4 |  |  |  | 
GGAUCGAAUGUGAGGAUAUGCUGGUCCUUGGAUCAGCAGAAGGCACAUGAGGAUCACCCAUGUCCAAACGGUCC [Eli bmx4 4.44] (Eterna round: R97, puzzle: Brourd's mod of Exclusion 4) | 352 | 525 |  |  |  | 
GGAUCGAGUGUGAGGAUAUGCUGGUCCUUGGAUCAGCAGAAGGCACAUGAGGAUCACCCAUGUGAAGACGAUCC [Eli bmx4 4.55] (Eterna round: R97, puzzle: Brourd's mod of Exclusion 4) | 340 | 40.1 |  |  |  | 
